From patent US12692310B2, “ASIC1 channel antagonist antibody” (ShanghaiTech University, priority 2019, dated 2026)

Legend:
hASIC1a-ECD [1] = biological target: T1, hASIC1a-ECD (Homo sapiens, UniProt P78348); experiment: Negative stain electron microscopy of hASIC1a-ECD/ASC06-Fab complex; settings: negative staining EM
T1 construct: The ectodomain of hASIC1a (hASIC1a-ECD) with an N-terminal fused IL-2 tag and Flag tag; IL-2 tag (N); made in house; host or cells: HEK293F
T1 sequence (P78348 67-427 limits assumed): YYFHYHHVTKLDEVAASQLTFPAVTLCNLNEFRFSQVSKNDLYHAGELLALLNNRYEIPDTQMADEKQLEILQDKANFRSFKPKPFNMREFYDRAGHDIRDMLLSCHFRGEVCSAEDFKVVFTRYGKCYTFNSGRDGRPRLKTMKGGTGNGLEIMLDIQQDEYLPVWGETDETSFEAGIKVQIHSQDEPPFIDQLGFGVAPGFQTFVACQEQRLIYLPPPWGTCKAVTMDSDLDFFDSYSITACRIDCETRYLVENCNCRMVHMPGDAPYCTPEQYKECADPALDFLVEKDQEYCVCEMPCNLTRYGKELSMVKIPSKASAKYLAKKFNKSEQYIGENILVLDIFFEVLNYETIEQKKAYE
Description: (§1) Negative Stain Electron Microscopy (EM): (1) Sample Preparation and Data Collection. The antigen-binding fragment of ASC06-IgG1 (ASC06-Fab) was prepared by digesting ASC06-IgG1 with papain followed by protein A affinity purification and gel filtration. The ectodomain of hASIC1a (hASIC1a-ECD) with an N-terminal fused IL-2 tag and Flag tag was expressed in HEK293F cells and purified by anti-Flag M2 magnetic beads and gel filtration using PBS buffer, pH 7.4. The ASC06-Fab and hASIC1a-ECD were incubated at a molar ratio of 3:1 in PBS buffer, pH 7.4, overnight at 4° C. to form a tertiary complex. This complex was further isolated by gel filtration. […] The peak fractions containing this complex were collected and subjected to negative staining EM.
The EM samples were prepared by diluting the purified complex of hASIC1a-ECD and ASC06-Fab to 0.01 mg/mL. […]
All micrographs were recorded with a Tecnai G2 Spirit transmission electron microscope (FEI) equipped with an LaB6 cathode operated at 120 kV and a 4,000×4,000 Eagle CCD camera at a calibrated magnification of 67,000 times, resulting in a pixel size of 1.74 Å.
EMI mage Processing and 3D Reconstruction. […] All of the recorded micrographs were first decimated twofold (resulting in a pixel size of 3.48 Å). […]

hASIC1a-ECD [2] = biological target: T1, hASIC1a-ECD; experiment: Gel filtration of hASIC1a-ECD and ASC06-Fab complex; format: binding; settings: Superdex 200
Description: as §1
To understand the nature of binding of ASC06 to hASIC1a, a complex was formed by mixing hASIC1a-ECD and ASC06-Fab. The complex, hASIC1a-ECD and ASC06-Fab were resolved using gel filtration.

complex formation with hASIC1a-ECD homotrimer (hASIC1a-ECD [2]): formed a stable complexes
B1: ASC06-Fab: antigen-binding fragment of ASC06-IgG1 prepared by digesting ASC06-IgG1 with papain (antibody, V domains shown)
VH: QVQLQQSGGGLVQPGGSLRLSCAASGFTFSSYAMSWVRQAPGKGLEWVSAISGSGGSTYYADSVKGRFTISRDNSKNTLYLQMNSLRAEDTAVYYCAKDSFYGYSKGDWGQGTLVTVSS
VL: QSALTQPASVSGSPGQSITISCTGTSSDVGAYNYVSWYQQQPGKAPKLMIYGVSNRPSGVSNRFSGSKSGNAASLTISGLQAEDEADYYCSSYTSSSTYVFGTGTKLTVLG
location of epitope (hASIC1a-ECD [1]): located on a surface formed by two hASIC1a-ECD subunits
